Reference: US20160355590A1 (UNIVERSITY OF SOUTHERN CALIFORNIA, published 2016)

Legend:
[1] = target: human HLA-DR (allele not stated), on cells (human); test: Scatchard plot analysis, normal B cells against tumor cell line
[2] = target: human HLA-DR (allele not stated), on cells (human); test: Scatchard plot analysis, avidity constant on tonsil lymphocytes
[3] = target: human HLA-DR (allele not stated), on cells (human); test: Scatchard plot analysis, avidity constant on ARH-77 myeloma cells

Binder | fold decrease in binding affinity on normal B cells against tumor cells [1] [fold] | Ka [2] [M⁻¹] | Ka [3] [M⁻¹]
Lym-1 monoclonal antibody (antibody, V domains shown, Mouse (BALB/c) hybridoma monoclonal antibody raised against Raji Burkitt's lymphoma cell nuclei; detected with goat anti-mouse IgG) VH: QLKESGPGLVAPSQSLSITCTISGFSLTSYGVHWVRQPPGKGLEWLVVIWSDGSTTYNSALKSRLSISKDNSKSQVFLKMNSLQTDDTAIYYCASHYGSTLAFASWGHGTLVTVSA VL: DIQMTQSPASLSASVGETVTIICRASVNIYSYLAWYQQKQGKSPQLLVYNAKILAEGVPSRFSGSGSGTQFSLKINSLQPEDFGSYYCQHHYGTFTFGSGTKLEIK | 4 | 8.8e+07 | –
Lym-2 monoclonal antibody (antibody, V domains shown, Mouse (BALB/c) hybridoma monoclonal antibody raised against CLL biopsy cell nuclei; detected with goat anti-mouse IgG) VH: EVQLEESGGGLVQPGGSMKLSCVASGFTFSNYWMNWVRQSPEKGLEWVAEIRFKSHNYATHFAESVKGRFTISRDDSKSSVYLQMNNLRAEDTGIYYCTRRIGNSDYDWWYFDVWGAGTSVTVSS VL: DIVMTQSHKFMSTSVGDRVSVTCKASQNVGNNVAWYQQKPGQSPKVLIYSASYRYSGVPDRFTGSGSGTDFTLTISNVQSEDLAEYFCQQYNTYPFTFGSGTKLEIK | 2 | 1.23e+08 | 2.33e+08
